In US11478551B2, “Long-acting adrenomedullin derivative” (University of Miyazaki, priority 2015, dated 2022):
Marks after values point to notes of the source that are not given here. Values belong to the compound of their own block, whether it stands above or below them.

Experiments:
Wistar rat = assay: Blood pressure-lowering effect, single intravenous dose in rat under anesthesia; format: in vivo; details: 1 nmol/kg, single dose into the vein
Procedure: Each compound prepared in experiments I-1 and II-1 or full-length AM was administered in a single dose of 1 nmol/kg into the vein of each rat under anesthesia, and change in the blood pressure of the rat was observed. Each 11 to 14-week-old male Wistar rat was anesthetized by the inhalation of isoflurane. After tracheotomy, inhalational anesthesia was controlled at an isoflurane concentration of 1.5 to 2.5% and a flow rate of 0.6 to 0.8 L/min. The right jugular vein was isolated from the rat, and a catheter tube corresponding to 26 G was inserted thereto. Next, the left carotid artery was isolated from the rat thus treated, and a catheter tube corresponding to 23 G was inserted thereto. From the catheter tube of the right jugular vein, a physiological saline-heparin solution (physiological saline: 100 mL; heparin: 1000 units) was infused at 2.4 mL/hr. […] The catheter inserted in the carotid artery was connected to a pressure transducer. […] In the diagram, the ordinate depicts a difference obtained by subtracting the average blood pressure before the administration of each drug from the average blood pressure at the time of the administration of each drug.

[1] = Measurement over time of AM concentration in plasma after subcutaneous administration (RIA); format: in vivo; details: rat
Procedure: 1 day, 7 days and 10 days after the start of the administration, 50 mg of pentobarbital was intraperitoneally administered, and 300 μL of blood was collected each time from the tail vain under anesthesia. Immediately, 300 μg of EDTA-2Na and […] of aprotinin were added to the obtained blood sample, and the mixture was centrifuged under conditions involving 10 minutes and 3000 rpm to obtain plasma. The AM concentration in the plasma of each sample was measured by radioimmunoassay (RIA) (Kitamura K, Ichiki Y, Tanaka M et al., Immunoreactive adrenomedullin in human plasma. FEBS Lett., vol. 341, p. 288-90, 1994).
The compound (37) prepared in experiment III-1 was subcutaneously administered in a single dose of 30 nmol/kg to each rat, and time-dependent change in the concentration in blood of the adrenomedullin derivative was observed. The compound (37) dissolved in physiological saline was subcutaneously administered to each 7- to 8-week-old male Wistar rat (approximately 250 g). 1 day, 2 days, 4 days, 7 days and 9 days after the start of the administration, 50 mg of pentobarbital was intraperitoneally administered, and 300 μL of blood was collected each time from the tail vain under anesthesia. Immediately, 300 μg of EDTA-2Na and […] of aprotinin were added to the obtained blood sample, and the mixture was centrifuged under conditions involving 10 minutes and 3000 rpm to obtain plasma. The AM concentration in the plasma of each sample was measured by RIA.

AM receptor = molecular target: T1, AM receptor (Homo sapiens, UniProt O60895+Q16602); assay: Intracellular cAMP concentration-increasing effect in HEK293 cell line caused to express an AM receptor; format: cell-based; details: 10^−8 mol/L, 15 minutes, 0.5 mM IBMX; percentage with respect to h.AM (1-52)-Gly;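 also: cAMP inside confluent receptor-expressing cells quantified by ELISA after 15 min exposure to each peptide at 10^−8 mol/L alongside 0.5 mM IBMX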
T1 construct: expressed in transfected cells; host or cells: HEK293 cell line

[2] = tested on: spontaneously hypertensive rat (SHR); assay: Effect of suppressing increase in blood pressure in spontaneously hypertensive rat (SHR)-(2); format: in vivo; details: 30 nmol/kg subcutaneous single dose, 4 days and 9 days after administration
Procedure: The compound (37) prepared in experiment III-1 was subcutaneously administered in a single dose of 30 nmol/kg to each SHR, and the blood pressure increase-suppressing effect of the adrenomedullin derivative was observed. The compound (37) was administered in a form dissolved in physiological saline to each 8-week-old male SHR (approximately 200 g). […] of physiological saline was subcutaneously administered in a single dose to each male SHR (approximately 200 g) in the same condition as above in a control group. The blood pressure was measured over time (1 day before and 4 days and 9 days after the administration of the compound (37) or physiological saline). The values of change in the blood pressure obtained 4 days and 9 days after the administration of the compound (37) or physiological saline with respect to the average systolic blood pressure on the day before the administration are shown in FIG. 10.

[3] = 10 nmol/kg subcutaneous single dose, 7 days later

T1 sequence (Q16602 23-461): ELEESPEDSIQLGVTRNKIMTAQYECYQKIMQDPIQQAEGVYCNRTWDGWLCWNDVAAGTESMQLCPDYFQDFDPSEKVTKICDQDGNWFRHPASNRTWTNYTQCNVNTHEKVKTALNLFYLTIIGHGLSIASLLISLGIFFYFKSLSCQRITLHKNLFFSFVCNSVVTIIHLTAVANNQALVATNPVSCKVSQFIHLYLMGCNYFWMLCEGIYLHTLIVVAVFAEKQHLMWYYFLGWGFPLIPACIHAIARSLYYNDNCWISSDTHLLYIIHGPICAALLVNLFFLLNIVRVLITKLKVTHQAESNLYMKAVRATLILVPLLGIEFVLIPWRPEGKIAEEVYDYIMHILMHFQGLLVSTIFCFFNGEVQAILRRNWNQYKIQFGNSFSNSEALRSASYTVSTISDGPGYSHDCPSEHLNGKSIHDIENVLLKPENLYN
T1 sequence (O60895 43-175): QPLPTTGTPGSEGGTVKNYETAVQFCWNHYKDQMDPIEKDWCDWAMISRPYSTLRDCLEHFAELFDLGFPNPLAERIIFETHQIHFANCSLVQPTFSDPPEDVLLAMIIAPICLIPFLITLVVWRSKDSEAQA

- level at time molar at 24 h [1, 3]: 0 pM
- level at time molar at 24 h ([1]; 10 nmol/kg subcutaneous single dose, 10 days later): 0 pM
- level at time molar at 24 h ([1]; male, Wistar, plasma, sc, 10 nmol/kg subcutaneous single dose, 1 day later): 6.7 pM
Compound: CC[C@H](C)[C@H](NC(=O)[C@H](CCC(N)=O)NC(=O)[C@H](Cc1c[nH]cn1)NC(=O)[C@H](C)NC(=O)[C@H](CC(C)C)NC(=O)[C@H](CCCCN)NC(=O)[C@H](CCC(N)=O)NC(=O)[C@@H](NC(=O)[C@@H](NC(=O)[C@@H]1CSSC[C@H](NC(=O)CNC(=O)[C@H](Cc2ccccc2)NC(=O)[C@H](CO)NC(=O)[C@H](CCCNC(=N)N)NC(=O)[C@H](CC(C)C)NC(=O)CNC(=O)[C@H](CCC(N)=O)NC(=O)[C@H](Cc2ccccc2)NC(=O)[C@H](CC(N)=O)NC(=O)[C@H](CC(N)=O)NC(=O)[C@H](CCSC)NC(=O)[C@H](CO)NC(=O)[C@H](CCC(N)=O)NC(=O)[C@H](CCCNC(=N)N)NC(=O)[C@@H](N)Cc2ccc(O)cc2)C(=O)N[C@@H](CCCNC(=N)N)C(=O)N[C@@H](Cc2ccccc2)C(=O)NCC(=O)N[C@@H]([C@@H](C)O)C(=O)N1)[C@@H](C)O)C(C)C)C(=O)N[C@@H](Cc1ccc(O)cc1)C(=O)N[C@@H](CCC(N)=O)C(=O)N[C@@H](Cc1ccccc1)C(=O)N[C@H](C(=O)N[C@@H](CC(=O)O)C(=O)N[C@@H](CCCCN)C(=O)N[C@@H](CC(=O)O)C(=O)N[C@@H](CCCCN)C(=O)N[C@@H](CC(=O)O)C(=O)N[C@@H](CC(N)=O)C(=O)N[C@H](C(=O)N[C@@H](C)C(=O)N1CCC[C@H]1C(=O)N[C@@H](CCCNC(=N)N)C(=O)N[C@@H](CO)C(=O)N[C@@H](CCCCN)C(=O)N[C@H](C(=O)N[C@@H](CO)C(=O)N1CCC[C@H]1C(=O)N[C@@H](CCC(N)=O)C(=O)NCC(=O)N[C@@H](Cc1ccc(O)cc1)C(N)=O)[C@@H](C)CC)C(C)C)[C@@H](C)O [h.AM (1-52), reference compound]
- rapidly decreased blood pressure immediately after the administration (Wistar rat): rapidly decreased blood pressure was observed

Compound: CH3O-PEG (20k)-(CH2)2—CH2-^αNH-(h.AM (1-52)) [Compound (4)]
- decrease in the blood pressure immediately after the administration, as compared to compound (2) (Wistar rat): further suppressed
- rapidly decreased blood pressure immediately after the administration (Wistar rat): not observed

Compound: CH3O-PEG (20k)-(CH2)5—CO-^αNH-(h.AM (1-52)) [Compound (2), reference compound]
- rapidly decreased blood pressure immediately after the administration (Wistar rat): not observed

Compound: GL-2-branched CH3O-PEG (40k)-CO-^αNH-(h.AM (1-52)) [Compound (27)]
- level at time molar at 24 h ([1]; 10 nmol/kg subcutaneous single dose, 1 day later): ≥ 3600 pM
- level at time molar at 24 h [1, 3]: ≥ 120 pM

- Intracellular cAMP concentration-increasing effect (%) (AM receptor): 91****^) %
Compound: GL-2-branched CH3O-PEG (60k)-CH2-^αNH-(h.AM (1-52)-Gly) [Compound (37)]
- level at time molar at 24 h ([1]; 30 nmol/kg subcutaneous single dose, 1 day later): ≥ 34000 pM
- level at time molar at 24 h ([1]; 30 nmol/kg subcutaneous single dose, 7 days later): ≥ 1600 pM
- level at time molar at 24 h ([1]; 30 nmol/kg subcutaneous single dose, 9 days later): ≥ 110 pM
- increase in the blood pressure compared to the control group [2]: suppressed
